Laboratory results: IntAct's records for PubMed 31515488

B1: Zinc finger protein Aiolos (Homo sapiens), Q9UKT9 (parent)
chain: MEDIQTNAELKSTQEQSVPAESAAVLNDYSLTKSHEMENVDSGEGPANEDEDIGDDSMKVKDEYSERDENVLKSEPMGNAEEPEIPYSYSREYNEYENIKLERHVVSFDSSRPTSGKMNCDVCGLSCISFNVLMVHKRSHTGERPFQCNQCGASFTQKGNLLRHIKLHTGEKPFKCHLCNYACQRRDALTGHLRTHSVEKPYKCEFCGRSYKQRSSLEEHKERCRTFLQSTDPGDTASAEARHIKAEMGSERALVLDRLASNVAKRKSSMPQKFIGEKRHCFDVNYNSSYMYEKESELIQTRMMDQAINNAISYLGAEALRPLVQTPPAPTSEMVPVISSMYPIALTRAEMSNGAPQELEKKSIHLPEKSVPSERGLSPNNSGHDSTDTDSNHEERQNHIYQQNHMVLSRARNGMPLLKEVPRSYELLKPPPICPRDSVKVINKEGEVMDVYRCDHCRVLFLDYVMFTIHMGCHGFRDPFECNMCGYRSHDRYEFSSHIARGEHRALLK
partner: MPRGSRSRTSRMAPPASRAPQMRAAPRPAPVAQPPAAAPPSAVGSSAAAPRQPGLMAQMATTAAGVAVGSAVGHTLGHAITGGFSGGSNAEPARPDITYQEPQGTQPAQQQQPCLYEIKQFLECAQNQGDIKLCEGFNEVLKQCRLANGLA
B2: Alpha-taxilin (Homo sapiens), P40222 (parent)
chain: MKNQDKKNGAAKQSNPKSSPGQPEAGPEGAQERPSQAAPAVEAEGPGSSQAPRKPEGAQARTAQSGALRDVSEELSRQLEDILSTYCVDNNQGGPGEDGAQGEPAEPEDAEKSRTYVARNGEPEPTPVVNGEKEPSKGDPNTEEIRQSDEVGDRDHRRPQEKKKAKGLGKEITLLMQTLNTLSTPEEKLAALCKKYAELLEEHRNSQKQMKLLQKKQSQLVQEKDHLRGEHSKAVLARSKLESLCRELQRHNRSLKEEGVQRAREEEEKRKEVTSHFQVTLNDIQLQMEQHNERNSKLRQENMELAERLKKLIEQYELREEHIDKVFKHKDLQQQLVDAKLQQAQEMLKEAEERHQREKDFLLKEAVESQRMCELMKQQETHLKQQLALYTEKFEEFQNTLSKSSEVFTTFKQEMEKMTKKIKKLEKETTMYRSRWESSNKALLEMAEEKTVRDKELEGLQVKIQRLEKLCRALQTERNDLNKRVQDLSAGGQGSLTDSGPERRPEGPGAQAPSSPRVTEAPCYPGAPSTEASGQTGPQEPTSARA

Variants of: B1
Conditions: with chch2_human CHCHD2, Q9Y6H1

Variant | effect of a mutation on the interaction
A24V | with no effect
N119D | with no effect

Variants of: B2
Conditions: with cc136_human CCDC136, Q96JN2
cc136_human CCDC136, Q96JN2, sequence (Q96JN2 whole entry): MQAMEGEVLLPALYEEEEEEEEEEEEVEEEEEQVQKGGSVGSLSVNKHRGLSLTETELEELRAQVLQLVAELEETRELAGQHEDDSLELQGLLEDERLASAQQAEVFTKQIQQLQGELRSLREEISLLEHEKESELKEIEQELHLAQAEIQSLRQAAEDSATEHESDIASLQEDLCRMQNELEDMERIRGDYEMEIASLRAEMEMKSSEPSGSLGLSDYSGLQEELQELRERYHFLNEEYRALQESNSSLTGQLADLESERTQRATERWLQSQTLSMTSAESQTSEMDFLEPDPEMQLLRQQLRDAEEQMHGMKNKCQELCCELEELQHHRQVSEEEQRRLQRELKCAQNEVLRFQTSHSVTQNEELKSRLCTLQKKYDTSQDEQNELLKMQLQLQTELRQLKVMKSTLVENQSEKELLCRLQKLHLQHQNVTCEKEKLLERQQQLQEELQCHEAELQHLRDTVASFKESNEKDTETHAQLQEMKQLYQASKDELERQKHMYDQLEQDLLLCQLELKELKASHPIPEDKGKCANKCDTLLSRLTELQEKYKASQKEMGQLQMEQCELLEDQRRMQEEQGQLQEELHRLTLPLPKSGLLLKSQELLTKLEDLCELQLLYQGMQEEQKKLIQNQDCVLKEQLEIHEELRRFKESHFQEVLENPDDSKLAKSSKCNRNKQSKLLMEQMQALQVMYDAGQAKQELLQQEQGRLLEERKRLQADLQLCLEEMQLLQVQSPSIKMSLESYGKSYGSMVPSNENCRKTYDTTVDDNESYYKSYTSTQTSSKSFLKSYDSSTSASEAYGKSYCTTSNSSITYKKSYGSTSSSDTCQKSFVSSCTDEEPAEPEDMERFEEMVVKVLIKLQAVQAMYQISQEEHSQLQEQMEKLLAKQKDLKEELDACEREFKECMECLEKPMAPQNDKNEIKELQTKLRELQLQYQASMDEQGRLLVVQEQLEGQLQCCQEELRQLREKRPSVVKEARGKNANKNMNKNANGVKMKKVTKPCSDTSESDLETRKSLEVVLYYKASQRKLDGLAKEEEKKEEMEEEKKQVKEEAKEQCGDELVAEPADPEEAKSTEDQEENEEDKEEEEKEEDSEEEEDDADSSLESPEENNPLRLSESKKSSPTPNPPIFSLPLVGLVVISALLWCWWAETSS

Variant | effect of a mutation on the interaction
S514R | with no effect
P541S | with no effect

Variants of: B2
Conditions: with tfp11_human TFIP11, Q9UBB9
tfp11_human TFIP11, Q9UBB9, sequence (Q9UBB9 whole entry): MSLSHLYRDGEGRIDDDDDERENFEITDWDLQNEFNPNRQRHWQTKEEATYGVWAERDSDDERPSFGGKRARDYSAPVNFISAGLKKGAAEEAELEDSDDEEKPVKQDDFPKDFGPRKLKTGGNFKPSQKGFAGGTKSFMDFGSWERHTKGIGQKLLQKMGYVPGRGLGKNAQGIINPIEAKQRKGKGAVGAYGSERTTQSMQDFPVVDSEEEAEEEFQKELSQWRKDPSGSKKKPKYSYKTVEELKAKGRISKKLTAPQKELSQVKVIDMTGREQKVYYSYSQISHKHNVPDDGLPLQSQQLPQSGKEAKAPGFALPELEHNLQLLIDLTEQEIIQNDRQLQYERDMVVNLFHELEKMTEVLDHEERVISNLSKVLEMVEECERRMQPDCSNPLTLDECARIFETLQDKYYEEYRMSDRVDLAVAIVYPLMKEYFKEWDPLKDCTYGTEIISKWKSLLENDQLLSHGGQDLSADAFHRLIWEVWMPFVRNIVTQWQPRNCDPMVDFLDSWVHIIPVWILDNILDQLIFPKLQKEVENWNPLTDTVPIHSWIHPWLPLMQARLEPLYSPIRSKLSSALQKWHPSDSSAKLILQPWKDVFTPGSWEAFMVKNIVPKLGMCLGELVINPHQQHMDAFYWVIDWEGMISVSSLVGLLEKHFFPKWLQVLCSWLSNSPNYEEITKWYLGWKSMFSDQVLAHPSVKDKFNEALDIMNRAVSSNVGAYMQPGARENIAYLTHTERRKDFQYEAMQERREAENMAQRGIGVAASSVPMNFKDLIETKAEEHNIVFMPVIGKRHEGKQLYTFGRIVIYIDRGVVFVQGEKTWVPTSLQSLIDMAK

Variant | effect of a mutation on the interaction
S514R | with no effect
P541S | with no effect
R154G | disrupting interaction strength

Variants of: B2
Conditions: with ndc80_human NDC80, O14777
ndc80_human NDC80, O14777, sequence (O14777 whole entry): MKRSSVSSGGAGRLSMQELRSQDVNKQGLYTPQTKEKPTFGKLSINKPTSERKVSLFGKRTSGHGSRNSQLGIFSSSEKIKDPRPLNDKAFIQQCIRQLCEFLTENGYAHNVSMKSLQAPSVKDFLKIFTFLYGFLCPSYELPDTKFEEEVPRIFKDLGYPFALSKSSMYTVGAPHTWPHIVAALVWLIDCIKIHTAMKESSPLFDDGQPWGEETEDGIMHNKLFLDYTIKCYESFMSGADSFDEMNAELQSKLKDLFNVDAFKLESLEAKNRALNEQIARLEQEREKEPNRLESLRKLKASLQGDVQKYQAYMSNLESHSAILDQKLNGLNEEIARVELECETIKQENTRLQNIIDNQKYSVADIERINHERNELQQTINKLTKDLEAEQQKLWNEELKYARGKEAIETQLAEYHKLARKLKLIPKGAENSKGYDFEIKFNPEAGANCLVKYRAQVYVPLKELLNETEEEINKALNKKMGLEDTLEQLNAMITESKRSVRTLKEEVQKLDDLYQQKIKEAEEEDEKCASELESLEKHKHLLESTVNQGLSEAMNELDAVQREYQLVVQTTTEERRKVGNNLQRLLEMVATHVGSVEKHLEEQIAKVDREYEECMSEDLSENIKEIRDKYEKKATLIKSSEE

Variant | effect of a mutation on the interaction
S514R | with no effect
P541S | with no effect
R154G | disrupting interaction strength

Variants of: B2
Conditions: with cdr2_human CDR2, Q01850
cdr2_human CDR2, Q01850, sequence (Q01850 whole entry): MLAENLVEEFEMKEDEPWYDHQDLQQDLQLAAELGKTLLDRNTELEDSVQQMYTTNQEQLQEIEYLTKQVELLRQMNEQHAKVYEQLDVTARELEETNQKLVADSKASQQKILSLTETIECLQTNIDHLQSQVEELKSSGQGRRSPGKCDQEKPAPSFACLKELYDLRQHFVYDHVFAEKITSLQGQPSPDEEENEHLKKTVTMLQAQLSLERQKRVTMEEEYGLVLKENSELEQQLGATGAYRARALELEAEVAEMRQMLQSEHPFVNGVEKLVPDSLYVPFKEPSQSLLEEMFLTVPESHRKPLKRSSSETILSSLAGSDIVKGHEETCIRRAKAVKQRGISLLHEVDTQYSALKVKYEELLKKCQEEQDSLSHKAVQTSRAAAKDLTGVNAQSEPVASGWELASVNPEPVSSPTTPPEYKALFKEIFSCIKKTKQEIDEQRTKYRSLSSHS

Variant | effect of a mutation on the interaction
R154G | disrupting interaction strength

Variants of: B2
Conditions: with lipa1_human PPFIA1, Q13136
lipa1_human PPFIA1, Q13136, sequence (Q13136 whole entry): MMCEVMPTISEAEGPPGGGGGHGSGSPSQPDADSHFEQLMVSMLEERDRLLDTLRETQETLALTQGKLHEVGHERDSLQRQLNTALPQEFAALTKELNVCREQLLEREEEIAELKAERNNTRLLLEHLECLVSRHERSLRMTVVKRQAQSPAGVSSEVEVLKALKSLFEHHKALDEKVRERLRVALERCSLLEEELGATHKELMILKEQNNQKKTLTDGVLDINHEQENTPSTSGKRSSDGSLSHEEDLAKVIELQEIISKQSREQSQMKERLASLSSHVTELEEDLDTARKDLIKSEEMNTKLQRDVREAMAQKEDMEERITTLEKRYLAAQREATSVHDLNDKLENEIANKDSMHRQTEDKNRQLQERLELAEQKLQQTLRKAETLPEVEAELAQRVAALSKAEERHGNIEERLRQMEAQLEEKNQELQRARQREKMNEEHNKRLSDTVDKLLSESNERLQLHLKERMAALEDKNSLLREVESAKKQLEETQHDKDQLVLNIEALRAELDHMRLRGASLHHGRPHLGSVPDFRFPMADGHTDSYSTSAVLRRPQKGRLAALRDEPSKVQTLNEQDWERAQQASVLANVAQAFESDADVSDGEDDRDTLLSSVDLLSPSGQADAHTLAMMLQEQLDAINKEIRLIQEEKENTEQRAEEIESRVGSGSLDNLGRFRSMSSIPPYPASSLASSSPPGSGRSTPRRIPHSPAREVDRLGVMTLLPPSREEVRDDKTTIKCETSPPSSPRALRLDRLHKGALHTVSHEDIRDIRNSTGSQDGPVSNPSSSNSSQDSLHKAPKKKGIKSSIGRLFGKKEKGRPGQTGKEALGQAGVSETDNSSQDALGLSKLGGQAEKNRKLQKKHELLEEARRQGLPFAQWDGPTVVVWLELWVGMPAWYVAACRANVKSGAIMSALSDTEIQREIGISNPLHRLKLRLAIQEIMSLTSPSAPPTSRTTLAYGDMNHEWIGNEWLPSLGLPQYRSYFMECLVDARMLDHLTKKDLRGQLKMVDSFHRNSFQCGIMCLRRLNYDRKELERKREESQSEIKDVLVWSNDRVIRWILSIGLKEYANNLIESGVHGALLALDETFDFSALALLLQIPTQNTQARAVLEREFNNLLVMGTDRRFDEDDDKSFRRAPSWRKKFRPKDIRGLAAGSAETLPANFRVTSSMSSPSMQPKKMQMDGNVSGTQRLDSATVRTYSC

Variant | effect of a mutation on the interaction
R154G | with no effect
